Assay results reported in the nanobody polyreactivity screen of Harvey et al. (2022).

Test: yeast display, Sf9 membrane polyspecificity reagent, FACS + sequencing; frameworks hold sequencing errors
Method in brief: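 After 36–48 hours of galactose induction, yeast (Saccharomyces cerevisiae BJ5465) displaying a synthetic nanobody library were stained at 4 °C for 1 hour with 10% biotinylated, detergent-solubilized Sf9 membrane reagent. Streptavidin microbeads enriched the stained cells before FACS sorting into low and high (top ~1%) gates on anti-HA and streptavidin fluorescence. Each clone's polyreactivity label reflects its gate of origin.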

Row | Sequence | polyreactivity (PSR sort gate)
1 | QVQLEESVGGLVQAGGSLRLSCAASVFIFYKKNMGLYRQAPGKERELVAAITDGDHTNYADSVKGRFTISRDNAKNTVYLQMNSLKPEDTAVYYCAADYAWNYAFGYWGQGTQVTVSS | low polyreactivity
2 | QVQLEESWGCLVQAGGSLRLSCAASGYTFVNYAMGWSRQAPGKEREFVAAISRSGGSTYYADSVKGRFTISRDNAKNTDYLQMHSLKPEDTAVYYCALRGYPPYKYYYWGQGTQVTVSS | high polyreactivity
3 | QVQLEETGGGLVQAGGSLLLSCEASGLTIHPYAMGWYRHAPGKERELVAAISSRGTSTYYADSVKWRFTISRDTAKNTVYLQMNSLKPEDTAVYYCAARHGPRAEAMYYWGQGPQVTVSS | high polyreactivity
4 | QVQLEETGGGLVQAGGSLRLSCSASGRTLYYYAMGWYRQAHGKDRELVAAISKRGGSTYYADSVQGRFTISRDNAKNTVYLQINSLKPVDTAVFYCAASSGLDSWGQGTQVTVSS | high polyreactivity
5 | QVQLEETGRGLVQAGGSLRISSAASGGIFAHYVMGWYRQAPGKARELVAAISASGGSTYYADSVKGRFTISRDNAKNTVYLQMNSLKPEDTAVYYCAAYYLAWFADRYKTVGSAMDYWGQVTQVTVSS | low polyreactivity
6 | QVQLEGSGGGLVQAGGSLRLSCAASGSIFSTNAMGWYRKAPGKERELVASISSGGGSTYYADSVKGRFTISRDTAKKTVYLQMNSLKPEDTAVYYCARRIGHGSRPYWLETWRYPYEYWGQGTQVTVSS | low polyreactivity
7 | QVQLEVSGGGLDQAGGSLRLSCAASGFTFVYYVMGCYRQAPGKQWELVAAINAGGGSTYYADSVKGRFTISRDNAKNTVYLQMNSLKPEDTAVYYCNARVRVRLGRNWSSYYYWGQGTQVTVSS | high polyreactivity
8 | QVQLGESGGALVQAGGSLRLSCAASGSIYWYKDMGWYTEATGKEMELVAAINSGGDTNYADSVKGRFTISRDNAKNTVYLQMNSLKPEDTAVFYCAATLLSRFYLSNRRSAYNYWGQGTLVTVSS | high polyreactivity
9 | QVQLGESGGCLGQAGGSLRLSCAASGYTFPYNVMGWYRQAPGKERELDAAITSSGGSTYYADSVKGRFTISRDNAKNTVYLQMNRLKPEDTAVYYCNAYPSSSLFDYWGQGTQVTVSS | low polyreactivity
10 | QVQLGESGGCLVQAGGSLRLICAASGFIFDRYVMGWYRQAPGKESELVAAINRSGGSTYYADSVKGRFTISRDNAKNTVYLQMNSLKRVDTAVYYCADVRPGSFTVEGYYCGQGTQVTVSS | high polyreactivity
11 | QVQLGESGGGLLQAGGSLRLICAASGSIFSPYDMGWYRHAPGKERVLVAAITGSGASTYYADSVKGRFSISRDNAKNTVSLEMNSLKPEETAVYYCAAVSKYYTTWTSGYWGQGTQVTLSS | low polyreactivity
12 | QVQLGESGGGLVQAGGILRLSCAASGSTFFYYAMGWYRQAPGKERELVATINYNGGSTSYADSVKGRFTFSRDNAKNTLYLQMISLIPEDTAVYYCAADLWVWYYKPYDYWGQGTQVTVSS | low polyreactivity
13 | QVQLGESGGGLVQAGGSLLLSSAASGFIFHNYPMGWYRQAPVKERELVAAISWSGSRTYYADSVKGRFTISRDNAKNSVYLQMNSLKPEDTAVYYCNKAPSWWDVRVPFDYWGQGTQVTVSS | low polyreactivity
14 | QVQLGESGGGLVQAGGSLRLICAASGFTFYDYAMGWYRQEPGKETEFVAAITRSGSSTYYADSVKGRFTISRDNAKNTVYLQMNSLKPEDTAVYYCAVGPFRRRGHYPTYYRYGYWGQGTQVTVSS | high polyreactivity
15 | QVQLGESGGGLVQAGGSLRLSCAASGFIFRYYGMGWYRQAPGKERELVAAISRGGGSTYYADSVKGRFTISRDNAKNTVYLQMNSLKPEDTAVYYCATRRDPDYDYWGQGTQVTVSS | high polyreactivity
16 | QVQLGESGGGLVQAGGSLRLSCAASGFTFVHNAMGWYRQAPGKERELVAAISSSGGRTYYADSVKGRFTISRDNAKNTVYLQMNSLKPDDTAVYYCATVNRYGPSYGYWGQGTHVTVSS | high polyreactivity
17 | QVQLGESGGGLVQAGGSLRLSCAASGFTFYTYAMGLYRQAPGKERELVATISSGGRTNYADSVKGRFTISRDNAKNTVYLQMNSLKPEDPAVFYCNASPPTLEGYWGQGTQVTVSS | low polyreactivity
18 | QVQLGESGGGLVQAGGSLRLSCAASGIIYKYAMGWYRQAPGQERELVATITWSDCSTYYADSVKGRFTISRDNAKNTVSLQMNSLKPEDTAVYYCAADDYYGYDYWGQGTQVTVSS | low polyreactivity
19 | QVQLGESGGGLVQAGGSLRLSCAASGITFGRKTMGWYRQAPGKERELVAAIDSGGNTYADSVKGRFTISRDNAKNTVYLQMNSLKPEDTAVYYCAVDGGEFSSYGYWGQGTQVTVSS | low polyreactivity
20 | QVQLGESGGGLVQAGGSLRLSCAASGITFWSYAMGLYRQAPGKERELVATIRWSGGGTYYADSVKGRFTISRDNAKNTVYLQMNSLKPEDTAVYYCNADDYGHPPYDYWGQGTQVTVSS | high polyreactivity
21 | QVQLGESGGGLVQAGGSLRLSCAASGRIFLRNVMGWYRPAPGKERELVAAISLSGASTYYADSVKGRFTISRDNAKNTVYLQMNSLKPEDTAVYYCAADITILSDYWGQGTQVTVSS | low polyreactivity
22 | QVQLGESGGGLVQAGGSLRLSCAASGRIFTSYPMGWYRQAPGKERELVAAISRSGGSTYYADSVKGRFTISRDNAKNTVYLQMNSLKPEDTAVYYCAKARVVAGYDYWGQGTQVTVSS | high polyreactivity
23 | QVQLGESGGGLVQAGGSLRLSCAASGRIFVKYAMGWYRQAPGKERELVAAISKSGGSTYYADSVKGRFTISRDNAKKTVYLQMNSLKPEDTAVYYCATRSREQYSVSYRLDFWGQGTQVTVSS | low polyreactivity
24 | QVQLGESGGGLVQAGGSLRLSCAASGRTFYSYAMGWYRHAPWKERELVAAISASGGRTYYADSVKGRFTISRDNEKNTVYLQMNSLKPEDTAVYYCAAYPWYRMWGQGTQVTVSS | high polyreactivity
25 | QVQLGESGGGLVQAGGSLRLSCAASGRTFYVYAMGWYRQAPGKERELVASIRRSGGITYYADYVKGRFTISRDNAKNTVYLLMNSLKPEDSAVYYCNARRGPGRREYDYWGQGTQVTVSS | high polyreactivity
26 | QVQLGESGGGLVQAGGSLRLSCAASGRTLSYYARGWYRHAPGKEREFVAAITGSGGSTYYADSVKGRFTISRDNAKNTVYLQMHSLQPADTAVYYCNAKGLGVFTVEYYYWGQGTQVTVSS | low polyreactivity
27 | QVQLGESGGGLVQAGGSLRLSCAASGSIFAFNTMGWYRQAPGKERELVAAITWGGGSTYYADSVKGRFTISRDNAKNTVYLQMNSLKPEDTAVYYCAARRSGRTRYYWGQGTQVTVSS | high polyreactivity
28 | QVQLGESGGGLVQAGGSLRLSCAASGSIFGHYAMGWYRQAPGKERELVAAISWSGTSTYYADSVKGRFTISRDNAKNTVYFQMNTLKPEDTAVYYCNVVYRVVSPSGGGYWGQGTQVTVSS | high polyreactivity
29 | QVQLGESGGGLVQAGGSLRLSCAASGSIFRGYTMGWYRQAPGKERELVAGISFSGTRTYYADSVKGRFTISRDNAKNTVYLQMNSLKPEDTAVYYCAAVSPYGSQYGYWGQGTQVTVSS | high polyreactivity
30 | QVQLGESGGGLVQAGGSLRLSCAASGSIFRYYVMGWYRQAPGKERELVATISRDSSRNYADSVKGRFTISRDNAKNTVYLQMNSLKPEDTAVYYCNTEGGVIRSYWYDYWGQGTQVTVSS | low polyreactivity
